This is an account of results in US20240270821A1, “GIP/GLP1/GCG TRI-RECEPTOR AGONISTS AND USES THEREOF” (priority 2023, published 2024).

What all share (assay): cell-based or functional assay
One assay has as its target hGLP-1R (Homo sapiens, UniProt P43220).
Assay [1] has as its target T1, human GIP receptor (human) (UniProt P48546).
T1 sequence (looked up): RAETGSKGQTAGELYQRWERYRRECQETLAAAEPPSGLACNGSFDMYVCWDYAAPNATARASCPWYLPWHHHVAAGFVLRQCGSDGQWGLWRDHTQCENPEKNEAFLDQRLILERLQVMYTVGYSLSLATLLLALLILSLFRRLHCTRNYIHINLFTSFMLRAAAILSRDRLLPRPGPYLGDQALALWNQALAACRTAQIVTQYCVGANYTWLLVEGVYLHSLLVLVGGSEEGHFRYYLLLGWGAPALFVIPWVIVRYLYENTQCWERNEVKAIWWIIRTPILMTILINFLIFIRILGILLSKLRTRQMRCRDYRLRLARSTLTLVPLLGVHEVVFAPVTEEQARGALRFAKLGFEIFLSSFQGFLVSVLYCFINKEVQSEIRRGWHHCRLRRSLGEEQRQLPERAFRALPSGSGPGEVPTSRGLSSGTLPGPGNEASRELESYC

Assay [2] has as its target human glucagon receptor (human) (UniProt P47871).

Sequence of human glucagon receptor (human) (P47871 26-477): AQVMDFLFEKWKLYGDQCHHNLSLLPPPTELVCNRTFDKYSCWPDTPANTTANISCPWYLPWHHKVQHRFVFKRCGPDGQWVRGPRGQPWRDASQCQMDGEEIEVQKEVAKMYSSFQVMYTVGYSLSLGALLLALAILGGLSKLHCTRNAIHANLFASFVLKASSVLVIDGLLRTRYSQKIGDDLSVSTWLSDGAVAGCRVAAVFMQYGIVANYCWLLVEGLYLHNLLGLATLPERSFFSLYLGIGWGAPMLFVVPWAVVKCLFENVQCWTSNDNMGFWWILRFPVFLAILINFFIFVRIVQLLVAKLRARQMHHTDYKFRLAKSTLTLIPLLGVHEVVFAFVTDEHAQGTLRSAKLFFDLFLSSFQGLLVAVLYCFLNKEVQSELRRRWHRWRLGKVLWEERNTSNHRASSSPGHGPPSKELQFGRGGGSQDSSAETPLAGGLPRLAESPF
Sequence of hGLP-1R (P43220 24-463): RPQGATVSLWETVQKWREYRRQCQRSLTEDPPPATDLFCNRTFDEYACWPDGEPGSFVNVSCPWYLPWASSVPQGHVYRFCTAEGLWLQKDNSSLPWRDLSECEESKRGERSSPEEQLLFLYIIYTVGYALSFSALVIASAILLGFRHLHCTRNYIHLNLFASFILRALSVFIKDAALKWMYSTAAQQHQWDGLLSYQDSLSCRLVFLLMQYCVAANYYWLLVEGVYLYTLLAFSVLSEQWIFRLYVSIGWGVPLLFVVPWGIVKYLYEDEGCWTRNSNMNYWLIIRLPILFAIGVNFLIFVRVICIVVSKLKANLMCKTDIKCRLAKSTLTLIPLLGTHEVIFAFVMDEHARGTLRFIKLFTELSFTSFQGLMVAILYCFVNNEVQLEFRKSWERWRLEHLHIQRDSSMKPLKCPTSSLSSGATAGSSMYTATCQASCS

B1: Example 274 (peptide)
chain: YXQGTFTSDXSXXLDKKAQXAFIEYLLEAGPSSGAPPPSGX
modifications: synthetic construct; SITE 2: note = 2-Aminoisobutyric Acid; SITE 10: note = 3-(4-Pyridyl)-L-alanine; SITE 12: note = L-ornithine; SITE 13: note = alpha-methyl-leucine; SITE 17: note = Lysine is chemically modified through conjugation of the epsilon-amino group of the Lysine side chain with (2-[2-(2-
As for B1, the Relative cAMP EC50 amounted to 4.9 nM in the assay with hGLP-1R, 0.296 nM in assay [1] and 9.37 nM in assay [2]. Also, the cAMP Rel EC50 (in the presence of 1% HSA) turned out to be 560 nM with hGLP-1R, 27.6 nM in assay [1] and 1120 nM in assay [2].

B2: Example 284 (peptide)
chain: YXQGTFTSDXSKXLDKKAQXAFIEYLIEAGESSGEPPPSGS
modifications: synthetic construct; SITE 2: note = 2-Aminoisobutyric Acid; SITE 10: note = 3-(4-Pyridyl)-L-alanine; SITE 13: note = alpha-methyl-leucine; SITE 17: note = Lysine is chemically modified through conjugation of the epsilon-amino group of the Lysine side chain with (2-[2-(2-Amino-ethoxy)-ethoxy]-acetyl)
In the case of B2, the Relative cAMP EC50 with hGLP-1R was found to be 1.54 nM; in assay [1] it was 0.347 nM; in assay [2], 9.21 nM. For the same molecule, the figures for the cAMP Rel EC50 (in the presence of 1% HSA) (with hGLP-1R; in assay [1]; in assay [2]) were 271 nM, 59.8 nM and 1530 nM, respectively.

B3: Example 275 (peptide)
chain: YXQGTFTSDXSXXLDKKAQXAFIEYLLEAGPSSXAPPPSGT
modifications: synthetic construct; SITE 2: note = 2-Aminoisobutyric Acid; SITE 10: note = 3-(4-Pyridyl)-L-alanine; SITE 12: note = L-ornithine; SITE 13: note = alpha-methyl-leucine; SITE 17: note = Lysine is chemically modified through conjugation of the epsilon-amino group of the Lysine side chain with (2-[2-(2-
On to B3, for which the Relative cAMP EC50 in the assay with hGLP-1R was found to be 4.93 nM; in assay [1] it was 0.318 nM; in assay [2], 7.8 nM. The cAMP Rel EC50 (in the presence of 1% HSA) in the assay with hGLP-1R came out at 692 nM; in assay [1], 27.7 nM; in assay [2] it was 882 nM.

B4: Example 283 (peptide)
chain: YXQGTFTSDXSKXLDKKAQXAFIEYLIEAGESSGAPPPSGS
modifications: synthetic construct; SITE 2: note = 2-Aminoisobutyric Acid; SITE 10: note = 3-(4-Pyridyl)-L-alanine; SITE 13: note = alpha-methyl-leucine; SITE 17: note = Lysine is chemically modified through conjugation of the epsilon-amino group of the Lysine side chain with (2-[2-(2-Amino-ethoxy)-ethoxy]-acetyl)
As for B4, the Relative cAMP EC50 turned out to be 1.16 nM with hGLP-1R, 0.225 nM in assay [1] and 9.73 nM in assay [2]. Moreover, the cAMP Rel EC50 (in the presence of 1% HSA) with hGLP-1R stood at 233 nM; in assay [1] it was 47.2 nM; in assay [2], 1470 nM.

B5: Example 281 (peptide)
chain: YXQGTFTSDXSKXLDKKAQXAFIEYLIEXGESSGEPPPSGE
modifications: synthetic construct; SITE 2: note = 2-Aminoisobutyric Acid; SITE 10: note = 3-(4-Pyridyl)-L-alanine; SITE 13: note = alpha-methyl-leucine; SITE 17: note = Lysine is chemically modified through conjugation of the epsilon-amino group of the Lysine side chain with (2-[2-(2-Amino-ethoxy)-ethoxy]-acetyl)
Take B5: the values for the Relative cAMP EC50 (with hGLP-1R; in assay [1]; in assay [2]) were 1.6 nM, 0.154 nM and 13.7 nM, respectively. For the same molecule, the cAMP Rel EC50 (in the presence of 1% HSA) came out at 295 nM in the assay with hGLP-1R, 25.8 nM in assay [1] and 1370 nM in assay [2].

B6: Example 286 (peptide)
chain: YXQGTFTSDXSKXLDKKAQXAFIEYLIAXGESSGEPPPSGE
modifications: synthetic construct; SITE 2: note = 2-Aminoisobutyric Acid; SITE 10: note = 3-(4-Pyridyl)-L-alanine; SITE 13: note = alpha-methyl-leucine; SITE 17: note = Lysine is chemically modified through conjugation of the epsilon-amino group of the Lysine side chain with (2-[2-(2-Amino-ethoxy)-ethoxy]-acetyl)
In the case of B6, the Relative cAMP EC50 in the assay with hGLP-1R turned out to be 3.45 nM; in assay [1], 0.0845 nM; in assay [2], 2.2 nM. Besides, the cAMP Rel EC50 (in the presence of 1% HSA) with hGLP-1R worked out at 925 nM; in assay [1], 11.5 nM; in assay [2], 228 nM.

B7: Example 272 (peptide)
chain: YXQGTFTSDFSXXLDKKAQXAFIEWLLEGGSSSGAPPPGGT
modifications: synthetic construct; SITE 2: note = 2-Aminoisobutyric Acid; SITE 12: note = L-ornithine; SITE 13: note = alpha-methyl-leucine; SITE 17: note = Lysine is chemically modified through conjugation of the epsilon-amino group of the Lysine side chain with (2-[2-(2-Amino-ethoxy)-ethoxy]-acetyl)-(gamma-Glu)
Consider B7, for which the Relative cAMP EC50 with hGLP-1R was determined as 2.62 nM; in assay [1], 0.254 nM; in assay [2], 7.91 nM. Moreover, the cAMP Rel EC50 (in the presence of 1% HSA) stood at 486 nM with hGLP-1R, 36.3 nM in assay [1] and 1540 nM in assay [2].

B8: Example 277 (peptide)
chain: YXQGTFTSDFSXXLDKKAQXAFIEYLLEXGPSSGAPPPSGX
modifications: synthetic construct; SITE 2: note = 2-Aminoisobutyric Acid; SITE 12: note = L-ornithine; SITE 13: note = alpha-methyl-leucine; SITE 17: note = Lysine is chemically modified through conjugation of the epsilon-amino group of the Lysine side chain with (gamma-Glu)-(2-[2-(2-Amino-ethoxy)-ethoxy]-acetyl)
Take B8: the Relative cAMP EC50 with hGLP-1R is 5.56 nM; in assay [1], 0.0672 nM; in assay [2], 10.6 nM. For the same molecule, the values for the cAMP Rel EC50 (in the presence of 1% HSA) (with hGLP-1R; in assay [1]; in assay [2]) were 639 nM, 13.3 nM and 1690 nM, respectively.

B9: Example 273 (peptide)
chain: YXQGTFTSDFSXXLDKKAQXAFIEWLLEGGHSSGAPPPGGE
modifications: synthetic construct; SITE 2: note = 2-Aminoisobutyric Acid; SITE 12: note = L-ornithine; SITE 13: note = alpha-methyl-leucine; SITE 17: note = Lysine is chemically modified through conjugation of the epsilon-amino group of the Lysine side chain with (2-[2-(2-Amino-ethoxy)-ethoxy]-acetyl)-(gamma-Glu)
On to B9, for which the Relative cAMP EC50 is 4.02 nM with hGLP-1R, 0.243 nM in assay [1] and 6.96 nM in assay [2]. Also, the cAMP Rel EC50 (in the presence of 1% HSA) with hGLP-1R amounted to 516 nM; in assay [1], 21.8 nM; in assay [2], 1770 nM.
